Results from the Human Domainome abundance scans (Beltran et al. 2025).
± gives the uncertainty stated by the source.

B1: Arginine-glutamic acid dipeptide repeats protein, residues 502 to 543; numbered along this chain, Q9P2R6 (parent)
chain: LKGYACRHCFTTTSKDWHHGGRENILLCTDCRIHFKKYGELP

Variants of: B1
Experiment: abundance fitness (aPCA) (normalised: wild type 0, dead -1); higher = more abundant; growth selection in yeast, the domain comes from the species named
Settings: Homo sapiens

| Variant | abundance fitness |
| --- | --- |
| LKGYACRHCFTTTSKDWHHGGRENILLCTDCRIHFKKSGELP [Y38S] | -0.017 ± 0.047 |
| LKGYACRHCFTTTSKDWHHGGRENILLCTSCRIHFKKYGELP [D30S] | -0.104 ± 0.046 |
| LKGYACRHCFTTTSKDWHHGGRENILLCTDCREHFKKYGELP [I33E] | 0.081 ± 0.04 |
| LKCYACRHCFTTTSKDWHHGGRENILLCTDCRIHFKKYGELP [G3C] | -0.226 ± 0.062 |
| LKGYACRHLFTTTSKDWHHGGRENILLCTDCRIHFKKYGELP [C9L] | -0.517 ± 0.042 |
| LKGYACRHCFTTTSKDWHHGGRENILLCTDCRIHFKSYGELP [K37S] | -0.052 ± 0.051 |
| LKGYACRHCFTTTSKDWHHGGRENILLHTDCRIHFKKYGELP [C28H] | -0.872 ± 0.18 |
| LKGYACRHCFTTTIKDWHHGGRENILLCTDCRIHFKKYGELP [S14I] | -0.454 ± 0.22 |
| LKGYACRHCFTTTSKDNHHGGRENILLCTDCRIHFKKYGELP [W17N] | -0.276 ± 0.084 |
| LKGYACRHCFTTTSKDAHHGGRENILLCTDCRIHFKKYGELP [W17A] | -0.191 ± 0.036 |
| LKGYACRHCFTTTSKDWHHGGREWILLCTDCRIHFKKYGELP [N24W] | -0.189 ± 0.033 |
| LKGYACRHCFTTTSKDWHHGGREIILLCTDCRIHFKKYGELP [N24I] | -0.299 ± 0.086 |
| LKGYACRYCFTTTSKDWHHGGRENILLCTDCRIHFKKYGELP [H8Y] | -0.238 ± 0.36 |
